Assay [1] has as its target T1, PSMA Fab.
T1 construct: also called Anti-PSMA Fab; 006 PSMA Fab
The experiment in a line: clonal phage ELISA on captured PSMA Fab; wells pre-incubated with PSMA antigen as competitor. (In an ELISA, binding on a coated surface is turned into a signal by an enzyme label.)
Method: (§1) Clonal phage were harvested as crude supernatants and screened via standard ELISAs. […] Prior to the addition of clonal phage. wells were incubated with blocking buffer and PSMA antigen or blocking buffer alone. Without washing or aspirating, clonal phage supernatants were then added to the wells and incubated for a short time. Wells were then washed followed by detection of bound phage using a horse radish conjugated anti-M13 antibody.

Assay [2] concerns the target T1, PSMA Fab. Kind of assay: clonal phage ELISA; biotinylated PSMA Fab on neutravidin plate, anti-M13 HRP detection.
Method: as §1
Assay [3] has as its target T2, PSMA Fab (biotinylated (site not stated)).
T2 construct: also called Anti-PSMA Fab; 006 PSMA Fab
Kind of assay: clonal phage ELISA; biotinylated PSMA Fab on neutravidin plate, wells pre-incubated with PSMA antigen as competitor, anti-M13-HRP detection.

Assay [4] has as its target T2, PSMA Fab. The experiment in a line: clonal phage ELISA; biotinylated PSMA Fab on neutravidin plate, blocking buffer alone, anti-M13-HRP detection.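 Note: crude clonal phage supernatants added without washing to wells preincubated with PSMA antigen or with blocking buffer alone, briefly incubated, then washed before bound phage detection.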
Method: as §1
The target in assay [5] is T3, PSMA Fab.
T3 construct: also called Anti-PSMA Fab; 006 PSMA Fab
Kind of assay: clonal phage ELISA; biotinylated PSMA Fab on neutravidin plate; wells pre-incubated with PSMA antigen as competitor; anti-M13-HRP detection.
Method: as §1

The target of assay [6] is T3, PSMA Fab. Kind of assay: clonal phage ELISA; biotinylated PSMA Fab on neutravidin plate; anti-M13-HRP detection; no PSMA antigen.
Method: as §1

Where no end group is shown, it is not given here.

B1: Phage-2857 (peptide)
peptide: LERACVPSWMCTGF
modifications: cysteine pairing not given here; also: fused to pIII of display bacteriophage, linker and sequence not given here
notes: Clonal phage of the Peptide-180 library; not shown: pIII filament protein of the display bacteriophage
Consider B1, for which the “Phage binding ELISA signal (Anti-PSMA Fab, with competitor)” value in the assay with PSMA Fab [1] turned out to be 0.0938. The “Phage binding ELISA signal, Anti-PSMA Fab” value with PSMA Fab [2] came out at 2.44.

Regarding AGKLCIPNWMCEEQ [Phage-2670], the “Phage binding ELISA signal, Anti-PSMA Fab” value is 0.0913 with PSMA Fab [3] and 0.884 in the assay with PSMA Fab [4].

B2: Phage-2676 (peptide)
peptide: IAKWCTPPWMCADN
modifications: cysteine pairing not given here; also: displayed on bacteriophage as fusion to pIII
Consider B2, for which the “Phage binding ELISA signal, Anti-PSMA Fab” value with PSMA Fab [3] worked out at 0.079; with PSMA Fab [4] it was 0.876.

On to SGNWCTPSWMCTGF [Phage-2677], for which the figures for the “Phage binding ELISA signal, Anti-PSMA Fab” value in the assay with PSMA Fab [3] and with PSMA Fab [4] were 0.062 and 0.874, respectively.

B3: Phage-2851 (peptide)
peptide: DMRLCVPEWMCLGL
modifications: cysteine pairing not given here; also: displayed on phage as fusion to pIII, linker and sequence not given here
notes: as for B1
With B3, the “Phage binding ELISA signal (Anti-PSMA Fab, with competitor)” value in the assay with PSMA Fab [1] worked out at 0.0789. Moreover, the “Phage binding ELISA signal, Anti-PSMA Fab” value with PSMA Fab [2] worked out at 2.46.

In the case of EEKWCIPYWMCEAV [Phage-2669], the “Phage binding ELISA signal, Anti-PSMA Fab” value was 0.0691 with PSMA Fab [3] and 0.885 in the assay with PSMA Fab [4].

B4: Phage-2856 (peptide)
peptide: VQRMCEPSWMCFGF
modifications: cysteine pairing not given here; also: fused to pIII of display bacteriophage, linker and sequence not given here
notes: as for B1
Consider B4, for which the “Phage binding ELISA signal (Anti-PSMA Fab, with competitor)” value with PSMA Fab [1] turned out to be 0.0783. Besides, the “Phage binding ELISA signal, Anti-PSMA Fab” value in the assay with PSMA Fab [2] was 2.44.

As for EMKWCTPPWMCTEL [Phage-2460], the “Phage binding ELISA signal, Anti-PSMA Fab with PSMA antigen” value in the assay with PSMA Fab [5] is 0.0656. Moreover, in the assay with PSMA Fab [6], the “Phage binding ELISA signal, Anti-PSMA Fab” value came out at 1.26.

As to SVHECRPLWMCQGF [Phage-2455], in the assay with PSMA Fab [5], the “Phage binding ELISA signal, Anti-PSMA Fab with PSMA antigen” value was 0.073. The “Phage binding ELISA signal, Anti-PSMA Fab” value with PSMA Fab [6] amounted to 1.27.

B5: Phage-2678 (peptide)
peptide: NVIRCEPMWMCYPS
modifications: cysteine pairing not given here; also: displayed on bacteriophage as fusion to pIII
B5: the “Phage binding ELISA signal, Anti-PSMA Fab” value was 0.0918 with PSMA Fab [3] and 0.874 with PSMA Fab [4].

On to WDNWCTPSWMCSEL [Phage-2671], for which the “Phage binding ELISA signal, Anti-PSMA Fab” value with PSMA Fab [3] was found to be 0.0853; with PSMA Fab [4], 0.883.

On to EHKWCIPDWMCWED [Phage-2675], for which the “Phage binding ELISA signal, Anti-PSMA Fab” value with PSMA Fab [3] was 0.0562; with PSMA Fab [4], 0.876.

B6: Phage-2854 (peptide)
peptide: VHIMCKPAWMCLGF
modifications: cysteine pairing not given here; also: fused to pIII of display bacteriophage, linker and sequence not given here
notes: Clonal phage of the Peptide-180 library; the cell for position 10 (c11) is missing in the printed row; not shown: pIII filament protein of the display bacteriophage
Turning to B6, the “Phage binding ELISA signal (Anti-PSMA Fab, with competitor)” value with PSMA Fab [1] came to 0.246. The “Phage binding ELISA signal, Anti-PSMA Fab” value in the assay with PSMA Fab [2] turned out to be 2.44.

Regarding DTNWCRPAWMCAFA (cysteine pairing not given here; also: displayed as fusion to phage pIII) [Phage-2458], in the assay with PSMA Fab [5], the “Phage binding ELISA signal, Anti-PSMA Fab with PSMA antigen” value was 0.0649. Also, in the assay with PSMA Fab [6], the “Phage binding ELISA signal, Anti-PSMA Fab” value was 1.27.

Regarding LDMLCIPAWMCEPR [Phage-2674], the “Phage binding ELISA signal, Anti-PSMA Fab” value is 0.0925 in the assay with PSMA Fab [3] and 0.877 with PSMA Fab [4].

On to TQMWCIPFWMCEVQ [Phage-2459], for which the “Phage binding ELISA signal, Anti-PSMA Fab with PSMA antigen” value with PSMA Fab [5] amounted to 0.0885. For the same molecule, the “Phage binding ELISA signal, Anti-PSMA Fab” value with PSMA Fab [6] was found to be 1.27.

Turning to AGHWCIPMWMCQED [Phage-2679], the “Phage binding ELISA signal, Anti-PSMA Fab” value amounted to 0.0526 with PSMA Fab [3] and 0.874 in the assay with PSMA Fab [4].

As for QEKWCIPEWMCSVR [Phage-2672], the “Phage binding ELISA signal, Anti-PSMA Fab” value with PSMA Fab [3] amounted to 0.0823; in the assay with PSMA Fab [4] it was 0.879.

B7: Phage-2850 (peptide)
peptide: VNIRCEPAWMCMGF
modifications: cysteine pairing not given here; also: fused to phage pIII, linker not given here
notes: as for B1
B7: the “Phage binding ELISA signal (Anti-PSMA Fab, with competitor)” value with PSMA Fab [1] was 0.108. Also, in the assay with PSMA Fab [2], the “Phage binding ELISA signal, Anti-PSMA Fab” value came out at 2.46.

B8: Phage-2855 (peptide)
peptide: WEMKCIPEWMCRGF
modifications: cysteine pairing not given here; also: fused to pIII of display bacteriophage, linker and sequence not given here
notes: as for B1
Turning to B8, in the assay with PSMA Fab [1], the “Phage binding ELISA signal (Anti-PSMA Fab, with competitor)” value amounted to 0.139. The “Phage binding ELISA signal, Anti-PSMA Fab” value with PSMA Fab [2] was found to be 2.44.

Regarding VEILCKPAWMCRLD [Phage-2457], in the assay with PSMA Fab [5], the “Phage binding ELISA signal, Anti-PSMA Fab with PSMA antigen” value turned out to be 0.062. Moreover, in the assay with PSMA Fab [6], the “Phage binding ELISA signal, Anti-PSMA Fab” value was determined as 1.27.

Take VTNWCIPEWMCNGN [Phage-2667]: the “Phage binding ELISA signal, Anti-PSMA Fab” value with PSMA Fab [3] worked out at 0.0615; in the assay with PSMA Fab [4], 0.894.

B9: Phage-2666 (peptide)
peptide: PPKWCIPAWMCAGM
modifications: cysteine pairing not given here; also: displayed on bacteriophage as fusion to pIII
Take B9: the “Phage binding ELISA signal, Anti-PSMA Fab” value with PSMA Fab [3] was determined as 0.0794; in the assay with PSMA Fab [4] it was 0.895.

For the molecule DWKWCTPAWMCTQT [Phage-2673], the “Phage binding ELISA signal, Anti-PSMA Fab” value with PSMA Fab [3] came out at 0.0698; with PSMA Fab [4], 0.877.

Take DEIWCIPRWMCDGI [Phage-2462]: the “Phage binding ELISA signal, Anti-PSMA Fab with PSMA antigen” value with PSMA Fab [5] turned out to be 0.0834. Further, in the assay with PSMA Fab [6], the “Phage binding ELISA signal, Anti-PSMA Fab” value stood at 1.25.

Consider ITKLCTPPWMCMDV [Phage-2668], for which the “Phage binding ELISA signal, Anti-PSMA Fab” value was 0.0571 with PSMA Fab [3] and 0.886 in the assay with PSMA Fab [4].

B10: Phage-2852 (peptide)
peptide: VMPLCKPAWMCGGF
modifications: cysteine pairing not given here; also: fused to pIII of display bacteriophage, linker and sequence not given here
notes: as for B1
As to B10, the “Phage binding ELISA signal (Anti-PSMA Fab, with competitor)” value with PSMA Fab [1] was 0.134. In addition, the “Phage binding ELISA signal, Anti-PSMA Fab” value with PSMA Fab [2] is 2.46.

B11: Phage-2853 (peptide)
peptide: MLPLCVPAWMCSGF
modifications: cysteine pairing not given here; also: fused to pIII of display bacteriophage, linker and sequence not given here
notes: as for B1
Regarding B11, the “Phage binding ELISA signal (Anti-PSMA Fab, with competitor)” value in the assay with PSMA Fab [1] came to 0.12. The “Phage binding ELISA signal, Anti-PSMA Fab” value with PSMA Fab [2] is 2.44.

As to DGKWCIPEWMCAQQ (cysteine pairing not given here; also: displayed as fusion to phage pIII) [Phage-2463], in the assay with PSMA Fab [5], the “Phage binding ELISA signal, Anti-PSMA Fab with PSMA antigen” value stood at 0.0837. In the assay with PSMA Fab [6], the “Phage binding ELISA signal, Anti-PSMA Fab” value was found to be 1.25.

In the case of SVKLCIPDWMCVSE [Phage-2461], the “Phage binding ELISA signal, Anti-PSMA Fab with PSMA antigen” value in the assay with PSMA Fab [5] turned out to be 0.203. In the assay with PSMA Fab [6], the “Phage binding ELISA signal, Anti-PSMA Fab” value was 1.26.

PVKLCKPDWMCWVS [Phage-2464]: in the assay with PSMA Fab [5], the “Phage binding ELISA signal, Anti-PSMA Fab with PSMA antigen” value stood at 0.105. The “Phage binding ELISA signal, Anti-PSMA Fab” value with PSMA Fab [6] stood at 1.25.

On to GEKWCIPSWMCVAV [Phage-2456], for which, in the assay with PSMA Fab [5], the “Phage binding ELISA signal, Anti-PSMA Fab with PSMA antigen” value stood at 0.0549. In addition, in the assay with PSMA Fab [6], the “Phage binding ELISA signal, Anti-PSMA Fab” value worked out at 1.27.

Turning to VMKWCTPQWMCEHL [Phage-2465], the “Phage binding ELISA signal, Anti-PSMA Fab with PSMA antigen” value with PSMA Fab [5] amounted to 0.068. For the same molecule, the “Phage binding ELISA signal, Anti-PSMA Fab” value with PSMA Fab [6] was determined as 1.25.

Values taken from patent US20260242478A1 (published 2026).
